The values below come from patent publication US20060063208A1 (GENERAL HOSPITAL, published 2006).

This assay concerns the target T1, DRAGON-Fc fusion protein (DRAGON without its GPI anchor fused to the Fc portion of human IgG) (mouse; human, UniProt Q7TQ33 49-415, limits assumed).
T1 construct: Purified from stably transfected HEK293 cells; also called soluble DRAGON; not shown: Fc portion of the human IgG (vector pIgplus, R&D Systems)
T1 sequence: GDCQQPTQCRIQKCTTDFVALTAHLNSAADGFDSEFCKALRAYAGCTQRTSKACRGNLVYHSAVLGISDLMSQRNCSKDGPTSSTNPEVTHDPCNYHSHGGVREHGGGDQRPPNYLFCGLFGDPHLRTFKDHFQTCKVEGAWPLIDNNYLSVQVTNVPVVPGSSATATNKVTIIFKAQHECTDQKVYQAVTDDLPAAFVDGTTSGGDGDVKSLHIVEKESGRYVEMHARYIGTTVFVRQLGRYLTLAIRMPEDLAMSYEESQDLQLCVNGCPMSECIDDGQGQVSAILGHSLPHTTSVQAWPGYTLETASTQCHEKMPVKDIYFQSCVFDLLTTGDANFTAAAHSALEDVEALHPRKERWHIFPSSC
Kind of assay: DRAGON-Fc with [125I]-BMP2 and increasing unlabeled BMP2, capture on protein A plates.

B1: BMP-2 (ligand, human, UniProt P12643 283-396, looked up)
chain: QAKHKQRKRLKSSCKRHPLYVDFSDVGWNDWIVAPPGYHAFYCHGECPFPLADHLNSTNHAIVQTLVNSVNSKIPKACCVPTELSAISMLYLDENEKVVLKNYQDMVVEGCGCR
modifications: iodinated with 125I where used as tracer
As usually defined, the Kd is the free concentration of one partner at which half of the binding sites on the other are occupied at equilibrium, for simple one-to-one binding. Read a high Kd as a looser complex. As to B1, the Kd was found to be 1.5 nM.
